# Data published in paper PMC4245953, “Hug1 is an intrinsically disordered protein that inhibits ribonucleotide reductase activity by directly binding Rnr2 subunit” (Nucleic Acids Research, 2014).
# T1: (His)6-Rnr2-Rnr4 complex (S. cerevisiae, UniProt P09938 1-399; P49723 1-345)
# T1 construct: Rnr2, S. cerevisiae; Rnr4, S. cerevisiae; also called Rnr2/4; source: E. coli BL21 (DE3) gold, co-expressed; purified (Ni-NTA, anion exchange) for NMR; 'purified' by the text or 'soluble extracts' by the legend in the pull-down
# T1 sequence (looked up) 1: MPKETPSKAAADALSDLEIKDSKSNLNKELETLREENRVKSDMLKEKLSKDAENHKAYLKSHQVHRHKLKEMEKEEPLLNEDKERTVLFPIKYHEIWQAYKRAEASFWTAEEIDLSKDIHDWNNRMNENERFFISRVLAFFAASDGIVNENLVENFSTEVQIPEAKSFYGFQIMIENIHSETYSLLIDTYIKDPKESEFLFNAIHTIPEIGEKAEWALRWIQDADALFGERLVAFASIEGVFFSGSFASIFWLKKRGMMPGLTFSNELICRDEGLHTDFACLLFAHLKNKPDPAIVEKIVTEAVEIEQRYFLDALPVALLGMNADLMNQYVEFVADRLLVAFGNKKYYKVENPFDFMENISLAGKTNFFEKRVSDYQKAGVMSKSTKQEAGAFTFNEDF
# T1 sequence (looked up) 2: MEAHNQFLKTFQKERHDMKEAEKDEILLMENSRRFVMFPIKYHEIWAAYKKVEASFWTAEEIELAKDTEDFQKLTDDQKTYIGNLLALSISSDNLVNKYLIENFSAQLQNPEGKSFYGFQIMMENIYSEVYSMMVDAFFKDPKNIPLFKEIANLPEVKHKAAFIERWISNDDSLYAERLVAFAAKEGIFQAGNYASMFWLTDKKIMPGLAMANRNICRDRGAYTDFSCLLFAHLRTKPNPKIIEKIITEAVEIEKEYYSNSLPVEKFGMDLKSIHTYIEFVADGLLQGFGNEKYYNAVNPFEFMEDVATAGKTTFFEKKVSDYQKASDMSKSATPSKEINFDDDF
# Key:
# [1] = target: Rnr2-Rnr4 (Saccharomyces cerevisiae) (UniProt P09938); conditions: cited from earlier work
# [2] = target: RNR R2 (Escherichia coli) (UniProt P69924); conditions: cited from earlier work
# RNR R2 (Mus musculus) = RNR R2 (Mus musculus) (UniProt P11157); conditions: cited from earlier work
# [3] = target: Rnr1 (Saccharomyces cerevisiae) (UniProt P21524); conditions: cited from earlier work
# [4] = target: Cdc22 (R1) (Schizosaccharomyces pombe) (UniProt P36602); conditions: cited from earlier work
# (His)6-Rnr2-Rnr4 complex = target: T1, (His)6-Rnr2-Rnr4 complex; test: NMR titration; 1H-15N HSQC of 15N-Hug1 with increasing unlabeled (His)6-Rnr2-Rnr4; Tris-d11 10 mM pH 7.5; 22°C (50 uM Hug1, ratios 1:0.125 to 1:1.6, global fit of four peaks, 1:1 model) and 9°C (16.4 uM Hug1, ratio 1:2); conditions: both partners purified
# Chain of Dif1 (O13577 whole entry): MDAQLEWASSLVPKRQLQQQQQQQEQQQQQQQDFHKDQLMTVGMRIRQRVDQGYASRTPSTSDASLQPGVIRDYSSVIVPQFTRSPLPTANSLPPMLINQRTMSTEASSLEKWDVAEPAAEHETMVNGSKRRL
# Chain of RNR R2 (Escherichia coli) (P69924 2-376): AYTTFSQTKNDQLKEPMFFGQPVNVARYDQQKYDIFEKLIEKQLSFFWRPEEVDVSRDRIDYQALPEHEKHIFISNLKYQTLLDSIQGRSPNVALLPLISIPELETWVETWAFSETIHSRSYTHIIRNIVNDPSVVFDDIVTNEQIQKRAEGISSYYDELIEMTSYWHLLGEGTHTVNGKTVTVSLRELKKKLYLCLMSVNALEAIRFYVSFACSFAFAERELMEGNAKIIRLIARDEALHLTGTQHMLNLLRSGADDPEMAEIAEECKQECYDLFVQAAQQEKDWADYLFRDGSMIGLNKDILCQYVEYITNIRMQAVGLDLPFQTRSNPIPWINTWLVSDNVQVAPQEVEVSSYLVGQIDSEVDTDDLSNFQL
# Chain of RNR R1 (from UniProt P00452) (P00452 whole entry): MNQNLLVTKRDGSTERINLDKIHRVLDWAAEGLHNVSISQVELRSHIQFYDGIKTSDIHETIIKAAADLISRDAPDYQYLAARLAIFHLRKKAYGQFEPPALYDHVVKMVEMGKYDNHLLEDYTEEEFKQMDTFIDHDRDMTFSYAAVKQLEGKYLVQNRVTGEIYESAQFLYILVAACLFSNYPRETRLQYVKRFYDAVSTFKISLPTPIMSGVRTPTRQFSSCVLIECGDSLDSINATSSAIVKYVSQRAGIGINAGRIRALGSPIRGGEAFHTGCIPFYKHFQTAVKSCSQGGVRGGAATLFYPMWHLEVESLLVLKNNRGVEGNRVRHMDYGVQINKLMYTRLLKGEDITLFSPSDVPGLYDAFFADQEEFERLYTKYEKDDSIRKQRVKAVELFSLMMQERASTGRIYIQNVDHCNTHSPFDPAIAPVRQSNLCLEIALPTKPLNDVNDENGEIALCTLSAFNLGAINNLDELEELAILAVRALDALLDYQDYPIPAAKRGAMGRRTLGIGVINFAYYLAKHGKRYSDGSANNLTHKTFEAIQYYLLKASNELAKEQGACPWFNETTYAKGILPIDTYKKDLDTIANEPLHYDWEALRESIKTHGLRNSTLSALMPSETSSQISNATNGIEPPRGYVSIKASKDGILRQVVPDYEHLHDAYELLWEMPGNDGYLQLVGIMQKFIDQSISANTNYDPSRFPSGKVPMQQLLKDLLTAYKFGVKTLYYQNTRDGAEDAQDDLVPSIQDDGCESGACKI
# Chain of RNR R2 (Mus musculus) (P11157 whole entry): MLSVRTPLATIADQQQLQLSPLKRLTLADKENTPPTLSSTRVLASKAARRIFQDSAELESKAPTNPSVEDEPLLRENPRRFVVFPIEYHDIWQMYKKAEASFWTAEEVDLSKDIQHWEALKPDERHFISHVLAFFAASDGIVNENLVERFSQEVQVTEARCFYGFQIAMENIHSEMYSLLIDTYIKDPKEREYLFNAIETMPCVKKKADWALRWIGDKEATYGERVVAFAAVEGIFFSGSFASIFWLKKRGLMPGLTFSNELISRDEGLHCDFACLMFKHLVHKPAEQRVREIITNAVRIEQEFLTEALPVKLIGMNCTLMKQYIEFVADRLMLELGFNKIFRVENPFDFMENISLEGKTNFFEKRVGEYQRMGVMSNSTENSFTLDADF
# Chain of Spd1 (Q10585 whole entry): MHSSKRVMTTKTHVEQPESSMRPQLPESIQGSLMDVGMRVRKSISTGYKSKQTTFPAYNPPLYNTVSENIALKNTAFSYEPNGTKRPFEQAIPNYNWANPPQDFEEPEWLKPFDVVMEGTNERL
# Chain of RNR R1 (from UniProt P07742) (P07742 whole entry): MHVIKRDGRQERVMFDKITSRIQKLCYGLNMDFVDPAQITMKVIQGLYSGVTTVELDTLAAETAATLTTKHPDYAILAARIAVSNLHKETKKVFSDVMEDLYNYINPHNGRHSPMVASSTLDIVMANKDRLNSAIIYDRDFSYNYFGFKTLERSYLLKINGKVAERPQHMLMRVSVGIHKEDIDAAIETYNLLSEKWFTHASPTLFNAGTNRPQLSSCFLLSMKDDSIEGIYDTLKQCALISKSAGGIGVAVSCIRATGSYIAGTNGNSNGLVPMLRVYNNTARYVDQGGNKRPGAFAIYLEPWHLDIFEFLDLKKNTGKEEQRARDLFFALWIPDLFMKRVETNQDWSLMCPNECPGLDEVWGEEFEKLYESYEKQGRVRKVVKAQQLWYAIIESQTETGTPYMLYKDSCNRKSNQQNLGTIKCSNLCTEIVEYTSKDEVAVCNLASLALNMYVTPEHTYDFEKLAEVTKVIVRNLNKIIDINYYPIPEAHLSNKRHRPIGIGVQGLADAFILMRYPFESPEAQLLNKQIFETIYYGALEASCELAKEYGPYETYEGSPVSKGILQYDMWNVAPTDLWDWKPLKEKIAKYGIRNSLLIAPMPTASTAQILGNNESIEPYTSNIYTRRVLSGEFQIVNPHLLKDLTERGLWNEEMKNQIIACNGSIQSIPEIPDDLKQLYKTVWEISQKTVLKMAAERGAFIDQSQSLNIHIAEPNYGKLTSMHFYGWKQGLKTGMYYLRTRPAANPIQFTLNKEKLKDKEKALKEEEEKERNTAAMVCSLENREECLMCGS
# Chain of Rnr1 (Saccharomyces cerevisiae) (P21524 whole entry): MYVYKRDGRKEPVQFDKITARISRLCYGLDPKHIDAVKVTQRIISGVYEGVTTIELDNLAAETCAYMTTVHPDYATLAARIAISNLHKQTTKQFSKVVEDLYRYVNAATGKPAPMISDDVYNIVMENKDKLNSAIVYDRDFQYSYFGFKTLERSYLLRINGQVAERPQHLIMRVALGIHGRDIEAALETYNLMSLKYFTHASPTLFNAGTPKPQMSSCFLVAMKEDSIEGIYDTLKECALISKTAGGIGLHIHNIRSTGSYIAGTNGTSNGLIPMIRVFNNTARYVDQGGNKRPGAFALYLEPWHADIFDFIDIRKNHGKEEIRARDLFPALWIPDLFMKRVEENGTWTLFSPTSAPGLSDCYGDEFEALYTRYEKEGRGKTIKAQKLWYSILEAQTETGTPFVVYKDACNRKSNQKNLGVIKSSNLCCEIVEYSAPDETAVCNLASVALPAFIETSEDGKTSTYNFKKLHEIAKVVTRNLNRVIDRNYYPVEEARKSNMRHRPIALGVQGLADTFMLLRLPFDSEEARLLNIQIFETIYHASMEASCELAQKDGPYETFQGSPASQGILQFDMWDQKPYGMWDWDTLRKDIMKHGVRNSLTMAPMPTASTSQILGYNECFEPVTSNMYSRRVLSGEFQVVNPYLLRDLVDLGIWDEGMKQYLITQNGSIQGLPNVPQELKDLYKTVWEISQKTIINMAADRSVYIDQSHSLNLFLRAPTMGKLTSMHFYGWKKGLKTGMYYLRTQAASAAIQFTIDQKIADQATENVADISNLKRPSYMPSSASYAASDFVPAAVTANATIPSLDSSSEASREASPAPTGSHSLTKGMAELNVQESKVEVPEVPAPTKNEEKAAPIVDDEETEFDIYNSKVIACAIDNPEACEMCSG
# Chain of Cdc22 (R1) (Schizosaccharomyces pombe) (P36602 whole entry): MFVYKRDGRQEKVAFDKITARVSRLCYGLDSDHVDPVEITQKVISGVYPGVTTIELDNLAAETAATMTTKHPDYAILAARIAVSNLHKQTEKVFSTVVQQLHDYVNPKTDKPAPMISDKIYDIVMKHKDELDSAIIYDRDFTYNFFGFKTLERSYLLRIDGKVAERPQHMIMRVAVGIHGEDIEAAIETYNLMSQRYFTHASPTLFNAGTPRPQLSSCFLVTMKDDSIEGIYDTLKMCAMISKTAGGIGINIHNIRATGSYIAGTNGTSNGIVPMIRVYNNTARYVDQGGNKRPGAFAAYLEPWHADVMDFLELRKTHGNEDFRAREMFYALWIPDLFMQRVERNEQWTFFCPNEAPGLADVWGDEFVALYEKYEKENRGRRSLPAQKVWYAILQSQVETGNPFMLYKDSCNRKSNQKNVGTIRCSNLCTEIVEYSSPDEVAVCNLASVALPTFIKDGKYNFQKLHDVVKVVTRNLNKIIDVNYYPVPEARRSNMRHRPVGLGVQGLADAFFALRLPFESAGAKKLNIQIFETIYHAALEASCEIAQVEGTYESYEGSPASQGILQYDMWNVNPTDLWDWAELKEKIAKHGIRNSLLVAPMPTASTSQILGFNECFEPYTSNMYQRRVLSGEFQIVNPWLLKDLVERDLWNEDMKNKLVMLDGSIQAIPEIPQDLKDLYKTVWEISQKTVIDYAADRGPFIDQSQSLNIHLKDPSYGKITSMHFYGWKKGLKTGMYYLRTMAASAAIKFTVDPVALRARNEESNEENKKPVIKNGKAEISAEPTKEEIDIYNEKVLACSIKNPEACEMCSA
# Chain of Sml1 (Q04964 whole entry): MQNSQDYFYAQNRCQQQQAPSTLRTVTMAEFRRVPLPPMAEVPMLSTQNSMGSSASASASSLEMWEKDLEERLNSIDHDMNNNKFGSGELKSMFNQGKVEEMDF
molecule,measurement,setting,value
Dif1 (from UniProt O13577),Kd,[1],600 nM
RNR R1 (from UniProt P00452),Kd,[2],100 nM
RNR R1 (from UniProt P07742),Kd,RNR R2 (Mus musculus),100 nM
Sml1 (from UniProt Q04964),Kd,[3],400 nM
Spd1 (from UniProt Q10585),Kd,[4],2400 nM
"Recombinant Hug1 (tags cleaved), 15N-labeled (natural protein, S. cerevisiae, UniProt Q6Q5K6 1-68, looked up, also: uniformly 15N-labeled, Hug1, S. cerevisiae, released from (His)6-GST-TEV site-Hug1 by TEV protease; calculated mass 7.5 kDa; protein of 68 residues; also called 15N-Hug1; purified recombinant Hug1; source: E. coli BL21 (DE3) gold, purified (Glutathione-agarose, TEV cleavage, Ni-NTA flow-through); not shown: His6, N-terminal, cleaved; GST, N-terminal, cleaved) MTMDQGLNPKQFFLDDVVLQDTLCSMSNRVNKSVKTGYLFPKDHVPSANIIAVERRGGLSDIGKNTSN",Kd,(His)6-Rnr2-Rnr4 complex,1600 ± 600 nM
